# Results as given in patent US9266939B2, “Compositions comprising natriuretic peptides and methods of use thereof” (Alexion Pharmaceuticals, Inc., priority 2010, dated 2016).
# How the values were obtained:
# [1] = In vivo pharmacokinetic study of NC2st administered IV or SC in C57BL/6 mice; conditions: male mice; for AUClast: 20 mg/kg single dose, serum
# Method: NC2st was formulated at a concentration of 5.79 mg/mL in 25 mM sodium phosphate pH 7.4, 150 mM NaCl. The animals received NC2st as a single IV or SC dose (20 mg/kg) as described in Table 3 below. Injections were scheduled between 7:00 and 10:15 AM. Each mouse was injected with test article subcutaneously into the scapular region or immobilized in a rodent restrainer and injected with the test article as an intravenous bolus via the caudal vein. […] The animals received only one dose before scheduled blood collection and sacrifice. Individual body weights were assessed before scheduled test article injection and the volume of test article administered was based on body weight determination. Blood samples (0.1 to 0.12 mL) were collected via a jugular vein under isoflurane anesthesia at different time points. At the last time point, blood samples were collected by cardiac puncture under isoflurane anesthesia. Blood samples were collected into Microvette 200Z/gel tube (Sarstedt, serum/gel clotting activator, #20.1291), incubated at room temperature for 30 to 60 minutes, and centrifuged at 10,000×g for five minutes at 2-8° C. Serum was then transferred into a fresh 0.5 mL tube (Sarstedt, #72.699), snap-frozen in liquid nitrogen, and stored at -80° C. until analysis. […] Formulated NC2st protein spiked in serum served as a standard. Pharmacokinetic profiles were derived from the concentration measured by EIA. A non-compartmental analysis (NCA) was used to calculate the pharmacokinetic parameters of testing compound. […] NCA Model 200 was selected for extravascular input or Model 201 for IV-Bolus input using sparse sampling analysis module for both models. The following non-compartmental PK parameters were calculated: • Area under the curve from time zero to the last detectable concentration (AUClast), calculated using the linear trapezoidal (linear interpolation); • Area under the curve from time zero to infinity (AUC∞) calculated [NT]λz (where λz=slope of the terminal phase of the serum concentration vs time curve); • Maximum observed serum concentration (Cmax), time of maximum serum concentration (Tmax); • Terminal elimination half-life (T1/2, calculated as 0.693/λz); • Systemic clearance (CL) was calculated as Dose/AUC∞ and • Total volume of distribution (Vss) was calculated using CL×MRT, where MRT is the mean residence time. Absolute bioavailability (F %) between routes was calculated using the following formula: [AUC∞ (sc)/Dose(sc)]/[AUC∞ (iv)/Dose(iv)]×100. Nominal times were used in the calculations and times are set relative to start of dosing. Nominal doses were used for the calculation of CL.
# NPR-B = target: T1, NPR-B (Homo sapiens, UniProt P20594); assay: Whole cell guanylyl cyclase (cGMP) assay, NPR-B; format: cell-based; design: expressed in transfected cells
# T1 sequence (P20594 23-1047): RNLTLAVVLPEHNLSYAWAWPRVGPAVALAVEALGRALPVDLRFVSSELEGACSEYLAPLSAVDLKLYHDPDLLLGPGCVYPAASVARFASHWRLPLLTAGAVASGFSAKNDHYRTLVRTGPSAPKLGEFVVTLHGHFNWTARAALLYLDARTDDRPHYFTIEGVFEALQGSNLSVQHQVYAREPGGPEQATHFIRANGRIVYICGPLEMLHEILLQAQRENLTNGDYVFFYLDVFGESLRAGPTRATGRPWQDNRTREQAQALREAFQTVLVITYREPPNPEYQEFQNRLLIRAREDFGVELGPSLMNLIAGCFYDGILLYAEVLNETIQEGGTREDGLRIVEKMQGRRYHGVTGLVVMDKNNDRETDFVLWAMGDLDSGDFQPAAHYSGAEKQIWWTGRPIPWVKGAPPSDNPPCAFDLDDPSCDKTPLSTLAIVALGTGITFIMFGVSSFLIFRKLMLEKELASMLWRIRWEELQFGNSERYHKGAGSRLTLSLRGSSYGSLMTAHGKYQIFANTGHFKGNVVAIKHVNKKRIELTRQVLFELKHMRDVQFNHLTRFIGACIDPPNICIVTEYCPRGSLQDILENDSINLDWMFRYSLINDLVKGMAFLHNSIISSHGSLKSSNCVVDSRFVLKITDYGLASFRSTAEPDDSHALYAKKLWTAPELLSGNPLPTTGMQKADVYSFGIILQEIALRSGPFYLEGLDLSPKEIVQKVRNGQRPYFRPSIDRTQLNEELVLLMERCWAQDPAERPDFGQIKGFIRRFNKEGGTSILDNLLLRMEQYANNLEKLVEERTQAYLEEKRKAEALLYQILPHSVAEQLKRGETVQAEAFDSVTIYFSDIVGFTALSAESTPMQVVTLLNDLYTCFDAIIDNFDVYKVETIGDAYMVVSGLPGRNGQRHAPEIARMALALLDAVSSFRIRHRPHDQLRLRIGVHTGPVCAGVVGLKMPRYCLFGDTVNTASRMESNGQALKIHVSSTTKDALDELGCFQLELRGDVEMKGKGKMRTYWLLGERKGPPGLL
# Method: HEK293S cells in a semi-confluent 75 cm2 flask are transfected with 30 μg of plasmid DNA coding for the appropriate receptor, e.g., human NPR-B or NPR-A, using Lipofectamine-2000CD. Alternatively, a stable polyclonal HEK293 S cell line expressing either human NPR-B or NPR-A was used. 24 hours after transfection, cells are trypsinized and plated into 48-well plates at 1×10^5 cells/well. Guanylyl cyclase assay is carried out 24 hours post-plating. Cells are first incubated for 30 minutes at 37° C. with serum-free DMEM medium. Then, they are incubated in triplicate with or without increasing concentrations of reference or test proteins in serum-free DMEM supplemented with 1 mM IBMX and 0.5% BSA, at 37° C. for 30 minutes to one hour. CNP serves as a suitable reference for NPR-B, while ANP is a suitable reference for NPR-A. Finally, cells are washed with ice-cold PBS and solubilized in lysis buffer from Catchpoint cGMP kit (Molecular devices). Concentrations of cGMP in lysate are determined using the Catchpoint cGMP kit. Dose-response curves are analysed with GraphPad Prism 5 software using non-linear regression with four-parameter logistic equation.
# [2] = NPR-B whole cell assay (FIG. 21C)
# [3] = projected from relative activities of CNP22 and NC2st in NPR-B whole cell assays
substance,measurement,setting,value
"NC2st: Fc-CNP fusion: Strep-tag II, TEV site, human IgG-1 Fc, 16-amino acid glycine-rich linker, CNP22; SEQ ID NO: 502",AUC∞,"[1]; IV, 20 mg/kg","28,563 hr · nmol/L"
same,CL,"[1]; IV, 20 mg/kg",0.187 mL/min/kg
same,Cmax,"[1]; IV, 20 mg/kg",2100 nM
same,Half-life,"[1]; IV, 20 mg/kg",10.6 h
same,Tmax,"[1]; IV, 20 mg/kg",1.00 h
same,Vss,"[1]; IV, 20 mg/kg",0.173 L/kg
same,AUClast,[1]; IV,"27,587 hr · nmol/L"
same,increase of SC half-life over intravenous CNP22,[1]; SC,approximately 340 fold
same,Bioavailability,"[1]; SC vs IV, 20 mg/kg",68.5%
same,AUC∞,"[1]; SC, 20 mg/kg","19,592 hr · nmol/L"
same,CL_F,"[1]; SC, 20 mg/kg",0.272 mL/min/kg
same,Cmax,"[1]; SC, 20 mg/kg",798 nM
same,Half-life,"[1]; SC, 20 mg/kg",14.3 h
same,Tmax,"[1]; SC, 20 mg/kg",6.00 h
same,Vss_F,"[1]; SC, 20 mg/kg",0.353 L/kg
same,AUClast,[1]; SC,"17,735 hr · nmol/L"
same,efficacy relative to CNP,NPR-B; [2],84%
same,potency relative to CNP (times less than that of CNP),NPR-B; [2],83 times
same,projected targeted NC2st concentration to achieve 50% reversal of ACH phenotype,NPR-B; [3],345 (±95 S.D.) nM
same,projected targeted NC2st concentration to achieve >100% reversal of ACH phenotype,NPR-B; [3],1214 (±446 S.D.) nM
